Data as given in publication PMC7337904.

Tests used:
[1] = target: AvaII restriction endonuclease (Anabaena variabilis); test: crystal structure; three crystal forms: AvaII alone, with partially cleaved dsDNA, and with RNA/DNA heteroduplex; protein in 50 mM Tris-HCl pH 7.4, 0.2 M NaCl, 5 mM CaCl2, 1 mM DTT, 5% glycerol; sitting drops at 18°C
[2] = target: AvaII restriction endonuclease (wild type) (UniProt Q8YYB7); test: EMSA; details: EMSA: 20 mM Tris-acetate pH 7.9, 50 mM K-acetate, 10 mM CaCl2 (replacing Mg-acetate), 1 mg/ml BSA, 37 C 30 min; 10 pmol duplex; 8% native PAGE in TBE or TB + …

Substance | stoichiometry N [1] | binding signal (fold weaker than dsDNA) [2]
AvaII restriction endonuclease (enzyme) | 2 | 
41-nt RNA/DNA heteroduplex, GGACC in RNA or DNA strand |  | 100
